From US20060253917A1 (published 2006)
Each block holds one binder with its values, some of them ahead of it.

Experiments:
OsRAP1B aa 30-180 = target: T1, OsRAP1B aa 30-180 (Oryza sativa, UniProt Q10CQ1 30-180); assay: Y2H; input trait library
T1 construct: bait, Gal4 DBD fusion; also called PN20232
T1 sequence: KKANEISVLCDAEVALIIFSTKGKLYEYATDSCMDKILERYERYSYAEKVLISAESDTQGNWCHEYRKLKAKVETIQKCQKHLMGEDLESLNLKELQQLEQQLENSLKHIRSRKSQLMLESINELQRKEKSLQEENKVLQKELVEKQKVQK
How it was run: (§1)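 Myriad Genetics Inc. (Salt Lake City, Utah) supplied the automated, high-throughput yeast two-hybrid assay used to detect protein-protein interactions. A bait clone encoding a defined amino-acid fragment of a rice protein was screened against a rice prey library, either the input trait or the output trait library. To identify the interacting proteins, prey clones were retrieved and their encoding sequences were compared against databases by BLAST.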

OsMADS1 aa 73-239 = target: T2, OsMADS1 aa 73-239 (Oryza sativa, UniProt A2XDY1 73-239); assay: Y2H; output trait library
T2 construct: prey, AD fusion; also called PN19788
T2 sequence: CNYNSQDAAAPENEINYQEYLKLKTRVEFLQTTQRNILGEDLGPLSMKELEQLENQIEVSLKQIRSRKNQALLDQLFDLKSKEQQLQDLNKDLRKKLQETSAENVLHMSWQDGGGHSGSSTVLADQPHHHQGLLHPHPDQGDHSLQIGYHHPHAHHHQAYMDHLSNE
How it was run: as §1

OsBAA81880 aa 2-168 = target: T3, OsBAA81880 aa 2-168 (Oryza sativa, UniProt Q9XJ66 2-168); assay: Y2H; output trait library
T3 construct: prey, AD fusion; also called PN20837; O. sativa MADS box-like protein
How it was run: as §1

OsBAA81880 aa 24-203 = target: T4, OsBAA81880 aa 24-203 (Oryza sativa, UniProt Q9XJ66 24-203); assay: Y2H; output trait library
T4 construct: prey, AD fusion; also called PN20837
How it was run: as §1

OsMADS5 aa 108-225 = target: T5, OsMADS5 aa 108-225 (Oryza sativa, UniProt A2Y9P0 108-225); assay: Y2H; output trait library
T5 construct: prey, AD fusion; also called PN20770
T5 sequence: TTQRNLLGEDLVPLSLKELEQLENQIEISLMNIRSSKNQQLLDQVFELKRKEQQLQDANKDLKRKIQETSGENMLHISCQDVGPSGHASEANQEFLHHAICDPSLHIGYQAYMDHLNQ
How it was run: as §1

OsMADS8 aa 79-248 = target: T6, OsMADS8 aa 79-248 (Oryza sativa, UniProt Q9SAR1 79-248); assay: Y2H; output trait library
T6 construct: prey, AD fusion; also called PN20778
T6 sequence: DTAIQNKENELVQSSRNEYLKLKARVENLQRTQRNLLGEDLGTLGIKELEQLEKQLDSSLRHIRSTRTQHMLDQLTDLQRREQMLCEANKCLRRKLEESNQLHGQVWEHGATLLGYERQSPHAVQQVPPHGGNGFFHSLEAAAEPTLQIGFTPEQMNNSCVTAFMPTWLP
How it was run: as §1

OsMADS45 aa 69-249 = target: T7, OsMADS45 aa 69-249 (Oryza sativa, UniProt P0C5B0 69-249); assay: Y2H; output trait library
T7 construct: prey, AD fusion; also called PN20231
T7 sequence: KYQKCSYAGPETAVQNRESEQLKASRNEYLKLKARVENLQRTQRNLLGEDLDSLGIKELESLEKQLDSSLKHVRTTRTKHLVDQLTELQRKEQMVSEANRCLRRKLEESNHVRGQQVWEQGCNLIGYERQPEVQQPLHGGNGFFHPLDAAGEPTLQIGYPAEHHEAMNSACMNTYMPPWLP
How it was run: as §1

OsMADS45 aa 98-249 = target: T8, OsMADS45 aa 98-249 (Oryza sativa, UniProt P0C5B0 98-249); assay: Y2H; output trait library
T8 construct: prey, AD fusion; also called PN20231
T8 sequence: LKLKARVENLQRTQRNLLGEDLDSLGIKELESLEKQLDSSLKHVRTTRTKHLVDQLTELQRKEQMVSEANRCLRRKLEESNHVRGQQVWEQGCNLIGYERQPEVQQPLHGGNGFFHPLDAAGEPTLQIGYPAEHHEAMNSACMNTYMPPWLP
How it was run: as §1

OsMADS1 aa 100-231 = target: T9, OsMADS1 aa 100-231 (Oryza sativa, UniProt A2XDY1 100-231); assay: Y2H; input trait library
T9 construct: prey, AD fusion; also called PN19788
T9 sequence: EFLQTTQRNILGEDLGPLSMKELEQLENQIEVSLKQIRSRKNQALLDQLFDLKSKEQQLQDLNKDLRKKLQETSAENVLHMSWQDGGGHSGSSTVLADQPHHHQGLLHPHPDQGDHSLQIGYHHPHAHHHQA
How it was run: as §1

OsMADS17 aa 106-249 = target: T10, OsMADS17 aa 106-249 (Oryza sativa, UniProt Q7XUN2 106-249); assay: Y2H; input trait library
T10 construct: prey, AD fusion; also called PN20914; O. sativa MADS box transcription factor MADS17
T10 sequence: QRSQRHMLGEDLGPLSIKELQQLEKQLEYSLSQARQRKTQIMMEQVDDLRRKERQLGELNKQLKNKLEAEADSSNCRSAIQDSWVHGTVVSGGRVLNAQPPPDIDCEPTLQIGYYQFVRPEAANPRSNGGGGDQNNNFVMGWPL
How it was run: as §1

OsPN22834 aa 112-278 = target: T11, OsPN22834 aa 112-278 (Oryza sativa, UniProt Q01IK0 110-276); assay: Y2H; input trait library
T11 construct: prey, AD fusion; also called Novel protein PN22834, similar to Oshox6, fragment
T11 sequence: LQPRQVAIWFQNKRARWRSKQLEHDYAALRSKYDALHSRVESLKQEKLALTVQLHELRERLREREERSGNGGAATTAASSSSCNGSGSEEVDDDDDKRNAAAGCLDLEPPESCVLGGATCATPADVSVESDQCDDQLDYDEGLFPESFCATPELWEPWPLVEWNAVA
How it was run: as §1

OsMADS8 aa 75-248 = target: T12, OsMADS8 aa 75-248 (Oryza sativa, UniProt Q9SAR1 75-248); assay: Y2H; input trait library
T12 construct: prey, AD fusion; also called PN20778
T12 sequence: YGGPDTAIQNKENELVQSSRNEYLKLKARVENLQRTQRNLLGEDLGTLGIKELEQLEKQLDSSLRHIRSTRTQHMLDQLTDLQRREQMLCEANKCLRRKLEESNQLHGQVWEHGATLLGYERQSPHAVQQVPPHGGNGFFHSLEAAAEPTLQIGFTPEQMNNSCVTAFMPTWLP
How it was run: as §1

OsMADS45 aa 96-249 = target: T13, OsMADS45 aa 96-249 (Oryza sativa, UniProt P0C5B0 96-249); assay: Y2H; input trait library
T13 construct: prey, AD fusion; also called PN20231
T13 sequence: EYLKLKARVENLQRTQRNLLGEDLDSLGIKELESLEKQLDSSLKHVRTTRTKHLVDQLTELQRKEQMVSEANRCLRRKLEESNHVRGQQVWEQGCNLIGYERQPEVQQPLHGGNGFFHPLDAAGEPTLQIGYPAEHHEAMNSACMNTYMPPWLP
How it was run: as §1

OsMADS6 aa 116-250 = target: T14, OsMADS6 aa 116-250 (Oryza sativa, UniProt Q6EU39 116-250); assay: Y2H; output trait library
T14 construct: prey, AD fusion; also called PN20233
T14 sequence: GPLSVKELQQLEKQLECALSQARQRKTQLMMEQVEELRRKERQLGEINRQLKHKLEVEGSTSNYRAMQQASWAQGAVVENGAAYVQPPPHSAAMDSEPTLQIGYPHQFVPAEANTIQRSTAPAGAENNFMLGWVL
How it was run: as §1

OsMADS45 aa 75-249 = target: T15, OsMADS45 aa 75-249 (Oryza sativa, UniProt P0C5B0 75-249); assay: Y2H; output trait library
T15 construct: prey, AD fusion; also called PN20231
T15 sequence: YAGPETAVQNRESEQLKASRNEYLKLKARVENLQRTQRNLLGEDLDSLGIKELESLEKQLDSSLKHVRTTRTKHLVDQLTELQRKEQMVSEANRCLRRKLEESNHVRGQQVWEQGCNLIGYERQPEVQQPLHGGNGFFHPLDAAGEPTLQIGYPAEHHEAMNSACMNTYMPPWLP
How it was run: as §1

OsMADS8 aa 107-248 = target: T16, OsMADS8 aa 107-248 (Oryza sativa, UniProt Q9SAR1 107-248); assay: Y2H; output trait library
T16 construct: prey, AD fusion; also called PN20778; O. sativa MADS box protein MADS8
T16 sequence: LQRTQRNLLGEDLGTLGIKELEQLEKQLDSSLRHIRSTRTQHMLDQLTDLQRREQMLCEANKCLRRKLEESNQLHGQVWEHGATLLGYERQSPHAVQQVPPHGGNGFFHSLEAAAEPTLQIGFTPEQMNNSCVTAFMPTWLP
How it was run: as §1

OsFDRMADS6 aa 1-186 = target: T17, OsFDRMADS6 aa 1-186 (Oryza sativa, UniProt P0C5B1 1-186); assay: Y2H; output trait library
T17 construct: prey, AD fusion; also called PN19766
T17 sequence: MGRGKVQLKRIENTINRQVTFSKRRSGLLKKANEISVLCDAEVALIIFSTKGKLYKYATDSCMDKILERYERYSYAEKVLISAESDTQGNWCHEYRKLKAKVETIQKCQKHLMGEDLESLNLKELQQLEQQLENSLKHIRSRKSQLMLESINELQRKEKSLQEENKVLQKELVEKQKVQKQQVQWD
How it was run: as §1

OsFDRMADS8 aa 53-233 = target: T18, OsFDRMADS8 aa 53-233 (Oryza sativa, UniProt A2Z9Q7 53-233); assay: Y2H; output trait library
T18 construct: prey, AD fusion; also called PN20698
T18 sequence: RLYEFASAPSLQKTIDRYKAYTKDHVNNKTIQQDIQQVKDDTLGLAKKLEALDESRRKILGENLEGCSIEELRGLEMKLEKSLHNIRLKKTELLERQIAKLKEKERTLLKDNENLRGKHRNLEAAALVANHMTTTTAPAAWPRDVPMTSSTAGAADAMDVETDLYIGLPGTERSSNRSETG
How it was run: as §1

OsMADS5 aa 109-225 = target: T19, OsMADS5 aa 109-225 (Oryza sativa, UniProt A2Y9P0 109-225); assay: Y2H; output trait library
T19 construct: prey, AD fusion; also called PN20770
T19 sequence: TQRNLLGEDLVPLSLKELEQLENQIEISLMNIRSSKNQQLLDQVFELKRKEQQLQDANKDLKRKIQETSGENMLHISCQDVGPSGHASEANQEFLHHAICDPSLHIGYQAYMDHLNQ
How it was run: as §1

OsMADS1 aa 95-257 = target: T20, OsMADS1 aa 95-257 (Oryza sativa, UniProt A2XDY1 95-257); assay: Y2H; output trait library
T20 construct: prey, AD fusion; also called PN19788
T20 sequence: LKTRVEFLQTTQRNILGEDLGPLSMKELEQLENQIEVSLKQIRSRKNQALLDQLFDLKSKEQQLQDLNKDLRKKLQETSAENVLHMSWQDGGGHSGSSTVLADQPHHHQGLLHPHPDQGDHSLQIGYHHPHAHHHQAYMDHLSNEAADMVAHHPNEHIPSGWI
How it was run: as §1

T4 sequence (Q9XJ66 24-203): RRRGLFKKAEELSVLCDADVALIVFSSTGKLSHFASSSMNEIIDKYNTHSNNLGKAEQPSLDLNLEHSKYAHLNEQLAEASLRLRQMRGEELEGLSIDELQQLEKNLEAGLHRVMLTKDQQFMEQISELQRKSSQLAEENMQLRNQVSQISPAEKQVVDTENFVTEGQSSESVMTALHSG
T3 sequence (Q9XJ66 2-168): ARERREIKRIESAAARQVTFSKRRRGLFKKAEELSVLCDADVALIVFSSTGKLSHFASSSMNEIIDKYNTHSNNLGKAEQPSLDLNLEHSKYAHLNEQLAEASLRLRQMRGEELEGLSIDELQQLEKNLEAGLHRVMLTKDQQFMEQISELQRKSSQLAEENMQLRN

binding result (OsRAP1B aa 30-180): binds
B1: OsMADS5 aa 106-225 (other)
chain: LQTTQRNLLGEDLVPLSLKELEQLENQIEISLMNIRSSKNQQLLDQVFELKRKEQQLQDANKDLKRKIQETSGENMLHISCQDVGPSGHASEANQEFLHHAICDPSLHIGYQAYMDHLNQ
notes: prey, AD fusion; also called PN20770

binding result (OsMADS1 aa 73-239): binds
binding result (OsBAA81880 aa 2-168): binds
binding result (OsBAA81880 aa 24-203): binds
binding result (OsMADS5 aa 108-225): binds
binding result (OsMADS8 aa 79-248): binds
binding result (OsMADS45 aa 69-249): binds
binding result (OsMADS45 aa 98-249): binds
B2: OsRAP1B aa 125-235 (other)
chain: LQQLEQQLENSLKHIRSRKSQLMLESINELQRKEKSLQEENKVLQKELVEKQKVQKQQLQWDQTQPQTISSSSSFMMREALPTTNISNYPAAAGERIEDVPAGQPQHVRIG
notes: bait, Gal4 DBD fusion; also called PN20232

binding result (OsMADS1 aa 100-231): binds
binding result (OsMADS17 aa 106-249): binds
binding result (OsPN22834 aa 112-278): binds
binding result (OsMADS8 aa 75-248): binds
binding result (OsMADS45 aa 96-249): binds
binding result (OsMADS6 aa 116-250): binds
binding result (OsMADS45 aa 75-249): binds
binding result (OsMADS8 aa 107-248): binds
binding result (OsFDRMADS6 aa 1-186): binds
binding result (OsFDRMADS8 aa 53-233): binds
binding result (OsMADS5 aa 109-225): binds
binding result (OsMADS1 aa 95-257): binds
B3: OsRAP1B aa 1-247 (other)
chain: MGRGKVQLKRIENKINRQVTFSKRRSGLLKKANEISVLCDAEVALIIFSTKGKLYEYATDSCMDKILERYERYSYAEKVLISAESDTQGNWCHEYRKLKAKVETIQKCQKHLMGEDLESLNLKELQQLEQQLENSLKHIRSRKSQLMLESINELQRKEKSLQEENKVLQKELVEKQKVQKQQLQWDQTQPQTISSSSSFMMREALPTTNISNYPAAAGERIEDVPAGQPQHVRIGLPPWMLSHING
notes: as for B2
